B1: H2aM7794N (antibody, V domains shown)
VH: QLQLQESGPDLVKPSDTLSLTCTVSDDSISSTTYYWAWIRQPPGKGLEWIGSMSYNGNNYYNPSLKSRVAISAGTSQKQFSLKLTSVTAADTAVYHCARHLGYNGNWYPFDFWGQGILVTVSS
VL: not shown
notes: human variable regions, mouse IgG2a Fc; also called H2M7794N
B2: H4xH9048P2 (antibody, V domains shown)
VH: QVQLVQSGAEVKRPGSSVKVSCKVSGVTFRNFAIIWVRQAPGQGLEWMGGIIPFFSAANYAQSFQGRVTITPDESTSTAFMELASLRSEDTAVYYCAREGERGHTYGFDYWGQGTLVTVSS
VL: not shown
notes: Human IgG4 Fc with 2 or more amino acid changes (H4xH)
B3: H4xH9135P2 (antibody, V domains shown)
VH: EVQLVESGGSVVRPGGSLRLSCVVSGFTFEDYGLSWVRQIPGKGLEWVSGISWTGGNTGYADSVKGRFTISRDNAKNSLYLQMNSLRAEDTALYHCTRDRQWLMQWYFDYWGQGTLVTVSS
VL: not shown
notes: as for B2
B4: H4xH9120P2 (antibody, V domains shown)
VH: QVQLVQSGAEVKRPGASVKVSCKASGYTFTSFYMYWVRQAPGQGLEWMGIINPSDGSTSNAQKFQGRVTMTRDTSTSTVYMELSSLRSEDTAVYYCARRVAGDIFDIWGQGTMVTVSS
VL: not shown
notes: as for B2
B5: H4xH9008P (antibody, V domains shown)
VH: EVQLVESGGGLVRPGGSLRLSCAASGFTFSTYAMAWVRQTPGKGLEGVSAIGGSGDSTYYVDSVKGRFTISRDNSKSTLFLQMNSLRAEDTAVYYCVKVRNYDGSFDIWGQGTMVTVSS
VL: not shown
notes: as for B2
B6: H4xH9145P2 (antibody, V domains shown)
VH: QVQLVESGGGVVQPGRSLRLSCSASGFTFSAYAMHWVRQAPGKGLEWVAAISYGGSDKYYADSVKGRFTISRDNSKNTLYLQMNSLRTDDTAVYYCAKSAHWNFFFDYWGQGTLVTVSS
VL: not shown
notes: as for B2
B7: H4xH8999P (antibody, V domains shown)
VH: QLQLQESGPGLVQPSETLSLTCTVSGDSISSTAYHWDWIRQPPGKGLEWIGTITYNGNTYFNPSLKSRVTISVDTSKNQFSLKLLSMTAAETAVFYCARHLGYNSDFFPFDFWGQGTLVTVSS
VL: not shown
notes: as for B2
B8: H4xH9128P2 (antibody, V domains shown)
VH: QVQLQESGPGLVKPSETLSLTCTVSGGSISSYHWNWIRQSPGKGLEWIGYIYYIGSTDYNPSLESRVTISVDTSKNQFSLKLSSVTAADTAVYYCARVPVGATGASDVWGQGTMVTVSS
VL: not shown
notes: as for B2
B9: H4xH9119P2 (antibody, V domains shown)
VH: EVQLVESGGGLVQPGRSLRLSCAASGFTFEDYAMHWVRQAPGKGLEWVSGIGWSNVKIGYADSVKGRFTISRDNVRNSLYLQMNSLRTEDTAFYYCVKAYTSMLTLYFDYWGQGTLVTVSS
VL: not shown
notes: as for B2
B10: H4H7795N2 (antibody, human IgG4 S228P, kappa, V domains shown)
VH: EVQVVESGGGLVEPGRSLRLSCKASGFTFDDYAMHWVRQTPGKALEWVSGISWSGNNIGYADSVKGRFTISKDDAKNSLYLQMNSLRPEDTALYYCTKDISITGTLDAFDVWGQGTMVTVSS
VL: DIQMTQSPISVSASVGDRVTITCRASQGISNWLAWYQQKPGIAPKLLIYSASSLQSGVPSRFRGSGSGTDFTLTIGSLQPEDFATYYCQQAHSFPLTFGGGTKVEIKR
B11: H4H7798N (antibody, human IgG4 S228P, kappa, V domains shown)
VH: EVQLLESGGVLVQPGGSLRLSCAASGFTFSNFGMTWVRQAPGKGLEWVSGISGGGRDTYFADSVKGRFTISRDNSKNTLYLQMNSLKGEDTAVYYCVKWGNIYFDYWGQGTLVTVSS
VL: DIQMTQSPSSLSASVGDSITITCRASLSINTFLNWYQQKPGKAPNLLIYAASSLHGGVPSRFSGSGSGTDFTLTIRTLQPEDFATYYCQQSSNTPFTFGPGTVVDFRR

The binders below were run against T1, full length human PD-1 on HEK293/hPD-1 cells (human, UniProt Q15116 25-288) (assay: FACS, 100 nM mAb).

| Binder | ratio of MFI HEK293/hPD-1 to HEK293 parental cells |
| --- | --- |
| B1 | 71 |

The binders below were run against T2, recombinant human PD-1 expressed with a C-terminal myc-myc-hexahistidine tag (human) (assay: SPR, mAb captured, 37C;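 also: rate constants from fitting sensorgrams to a 1:1 binding model, KD derived as kd divided by ka and half-life as ln2/(60·kd)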).
T2 construct: monomeric; also called hPD-1-MMH; human PD-1-MMH

| Binder | Kd [nM] | koff [s⁻¹] | kon [M⁻¹ s⁻¹] | t½ [min] |
| --- | --- | --- | --- | --- |
| B2 | 23.2 | 0.0086 | 370000 | 1.3 |
| B3 | 26.6 | 0.0111 | 418000 | 1 |
| B4 | 102 | 0.00701 | 68800 | 1.6 |
| B5 | 62.6 | – | – | 1.4 |
| B6 | 94 | 0.0123 | 131000 | 0.9 |
| B7 | 15.7 | – | – | 1.2 |
| B8 | 42 | 0.00436 | 104000 | 2.6 |
| B9 | 43.5 | 0.0104 | 240000 | 1.1 |
| B10 | 104 | 0.00664 | 64100 | 1.7 |
| B11 | 7.48 | 0.0017 | 227000 | 7 |

Each binder was assayed against T3, human PD-1 dimer (human PD-1-mFc or human PD-1-hFc) (human, UniProt Q15116 25-170) (assay: SPR, mAb captured, 25C;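 also: surface plasmon resonance on Biacore, PD-1 flowed over captured anti-PD-1 antibodies, rate constants from a 1:1 binding model fit, KD taken as kd/ka and t½ as ln2/(60·kd)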).
T3 construct: also called hPD-1-mFc; hPD1-hFc

| Binder | Kd [nM] | koff [s⁻¹] | kon [M⁻¹ s⁻¹] | t½ [min] |
| --- | --- | --- | --- | --- |
| B2 | 0.798 | 0.000188 | 236000 | 61 |
| B3 | 0.651 | 0.000138 | 212000 | 84 |
| B4 | 1.82 | 0.000119 | 65200 | 97 |
| B5 | 0.796 | – | – | 412 |
| B6 | 2.4 | 0.000158 | 65800 | 73 |
| B7 | 0.217 | – | – | 96 |
| B8 | 1.59 | 0.000133 | 83700 | 87 |
| B9 | 0.992 | 0.000162 | 163000 | 71 |
| B10 | 0.615 | 9.25e-05 | 150000 | 125 |
| B11 | 0.122 | 5.4e-05 | 441000 | 214 |

These binders were tested against T3, human PD-1 dimer (human PD-1-mFc or …) (assay: SPR, mAb captured, 37C).

| Binder | Kd [nM] | koff [s⁻¹] | kon [M⁻¹ s⁻¹] | t½ [min] |
| --- | --- | --- | --- | --- |
| B2 | 3.05 | 0.0011 | 361000 | 10 |
| B3 | 2.27 | 0.000702 | 310000 | 16 |
| B4 | 5.96 | 0.000482 | 80800 | 24 |
| B5 | ≤ 0.181 | – | – | ≥ 1160 |
| B6 | 3.58 | 0.000571 | 160000 | 20 |
| B7 | 0.596 | – | – | 26 |
| B8 | 3.68 | 0.000686 | 186000 | 17 |
| B9 | 3.8 | 0.000909 | 240000 | 13 |
| B10 | 1.65 | 0.000264 | 160000 | 44 |
| B11 | 0.175 | 0.000115 | 660000 | 100 |

Biological target: T4, recombinant cynomolgus monkey PD-1 expressed with a C-terminal myc-myc-hexahistidine tag (cynomolgus monkey (Macaca fascicularis))
T4 construct: monomeric; also called MfPD-1-MMH
T4 chain: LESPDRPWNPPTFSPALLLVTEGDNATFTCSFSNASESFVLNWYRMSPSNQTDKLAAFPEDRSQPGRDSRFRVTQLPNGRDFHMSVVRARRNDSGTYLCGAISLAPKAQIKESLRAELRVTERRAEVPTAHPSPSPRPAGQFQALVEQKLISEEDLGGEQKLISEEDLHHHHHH
Assay: SPR, mAb captured, 25C;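 also: rates from fitting Biacore data for PD-1 binding to anti-PD-1 antibodies with a 1:1 model, KD computed as koff/kon and t½ as ln2/(60·koff)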

| Binder | Kd [nM] | koff [s⁻¹] | kon [M⁻¹ s⁻¹] | t½ [min] |
| --- | --- | --- | --- | --- |
| B2 | 7 | 0.000897 | 128000 | 13 |
| B3 | 10.6 | 0.00131 | 124000 | 8.8 |
| B4 | 34.1 | 0.00108 | 31700 | 11 |
| B5 | 23.8 | – | – | 4.6 |
| B6 | 43.1 | 0.00124 | 28600 | 9.3 |
| B7 | 3.09 | – | – | 8.7 |
| B8 | 17.7 | 0.000649 | 36800 | 18 |
| B9 | 22.2 | 0.00166 | 75000 | 6.9 |
| B10 | 22.4 | 0.00148 | 65900 | 8 |
| B11 | 3.86 | 0.000551 | 143000 | 21 |

Biological target: T4, recombinant cynomolgus monkey PD-1 …
Assay: SPR, mAb captured, 37C

| Binder | Kd [nM] | koff [s⁻¹] | kon [M⁻¹ s⁻¹] | t½ [min] |
| --- | --- | --- | --- | --- |
| B2 | 16.8 | 0.00697 | 415000 | 1.7 |
| B3 | 28.9 | 0.0134 | 462000 | 0.9 |
| B4 | 107 | 0.00748 | 69800 | 1.5 |
| B5 | 23.5 | – | – | 0.8 |
| B6 | 83.7 | 0.0143 | 171000 | 0.8 |
| B7 | 9.41 | – | – | 1.2 |
| B8 | 46.1 | 0.00418 | 90600 | 2.8 |
| B9 | 51.4 | 0.0123 | 240000 | 0.9 |
| B10 | 88.3 | 0.00689 | 78000 | 1.7 |
| B11 | 10.5 | 0.00223 | 213000 | 5 |

These binders were tested against PD-1 chimera: extracellular domain of human PD-1 with trans-membrane and cytoplasmic domains of human CD300a, … (human, UniProt Q9UGN4 181-299, limits assumed) (assay: cell-based or functional assay).

| Binder | Concentration (M) of Antibody at 150% activation [M] | Emax mean [%] @ 100 nM [%] |
| --- | --- | --- |
| B1 | 4.09e-08 | 170 |

What follows are binders tested against T1, full length human PD-1 on HEK293/hPD-1 … (assay: FACS, 100 nM mAb, HEK293/hPD-1 cells;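 also: antibodies incubated with cells for 15-30 min on ice, bound antibody detected through a secondary F(ab′)2 by flow cytometry, with parental HEK293 cells tested in parallel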).

| Binder | MFI [MFI] |
| --- | --- |
| B1 | 19100 |

The binders below were run against T1, full length human PD-1 on HEK293/hPD-1 … (assay: FACS dose response, HEK293/hPD-1 cells).

| Binder | EC50 [nM] | Max Geom. Mean MFI @ 100 nM [MFI] |
| --- | --- | --- |
| B1 | 1.37 | 16400 |

These binders were tested against T5, recombinant human PD-1 dimer expressed with a C-terminal mouse IgG2a Fc tag (human) (assay: competition ELISA: 1.5 nM hPD-1-mFc to coated hPD-L1-hFc).
T5 construct: also called hPD-1-mFc

| Binder | % blocking at 200 nM antibody [%] | IC50 [nM] |
| --- | --- | --- |
| B1 | 95 | 1.1 |

What follows are binders tested against T6, dimeric biotinylated human PD-1 protein with a C-terminal human Fc tag (human, biotinylated (sites not given)) (assay: competition ELISA: 200 pM biot-hPD-1-hFc to coated hPD-L1-mFc).
T6 construct: also called biot-hPD-1-hFc

| Binder | % blocking at 50 nM antibody [%] | IC50 [nM] |
| --- | --- | --- |
| B1 | 99 | 0.23 |

Each binder was assayed against T5, recombinant human PD-1 dimer expressed … (assay: BLI Octet: 100 nM hPD-1-mFc + 500 nM mAb to captured hPD-L1-hFc).

| Binder | % Blocking [%] | binding of the mixture (nm) |
| --- | --- | --- |
| B1 | 114 | -0.01 |
